The source of these data is publication doi:10.1101/2023.01.03.522599, “Crystal structure of a mammalian CMTM6 and its interaction model with PD-L1” (bioRxiv, 2023).

For the test, the target named is T1, human PD-L1, BRIL fused to the C-terminus, C-terminally His-tagged (human, UniProt Q9NZQ7 19-290).
T1 construct: PD-L1, human; probably ED, TMD and CD together; also called hPD-L1; source: purified; not shown: BRIL, C-terminal, kept; His-tag, C-terminal, kept
As to the kind of experiment: pull-down; purified C-terminally His-tagged hPD-L1 variants (BRIL fused) used to pull down purified His-tag free bCMTM6 variants (BRIL fused); examined by SDS-PAGE. The following applies: both partners purified.

T1 sequence (Q9NZQ7 19-290): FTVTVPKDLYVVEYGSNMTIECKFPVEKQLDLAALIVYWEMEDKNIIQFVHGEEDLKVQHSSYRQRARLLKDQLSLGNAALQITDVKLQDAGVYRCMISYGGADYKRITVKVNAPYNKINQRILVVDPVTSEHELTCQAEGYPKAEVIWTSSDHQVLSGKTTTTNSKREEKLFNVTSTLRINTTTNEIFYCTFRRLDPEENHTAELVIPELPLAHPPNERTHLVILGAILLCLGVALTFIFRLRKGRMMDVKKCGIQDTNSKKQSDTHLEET

B1: bovine CMTM6 protein (CKLF-like MARVEL transmembrane domain-containing protein 6), BRIL fused to the C-terminus (natural protein, UniProt Q3ZBE8 1-182, looked up)
chain: MENGQVYRATTEAHPGPGIGPRSGLAAYFTLSRLTGFRRLKLLELVLSLLAFICEEVVSQCTLCGGLYFFEFVSCSAFLLSLLILVVYCTPVYDRVDPAKVKSSDFFITLGTGLVFFVASLTFTLTHDNTIAEIAAIVFGMLASLTYLAEFSFMLREKLKEPRPRKGEATMRREHLTEPLNA
notes: CMTM6, bovine; the crystal structure holds residues 33-165, and 32 amino-terminal and 17 carboxy-terminal residues were not modeled; Whether BRIL was on the crystallized sample is not clear from 'bCMTM6(-BRIL)'; also called bCMTM6; bCMTM6(-BRIL); source: purified (size-exclusion column); not shown: BRIL, C-terminal, kept
For B1, the binding result is “binds”.
